Patent US20150344570A1 (published 2015)

Molecular target: T1, FcγRIIb extracellular domain with C-terminal His tag (human, UniProt P31994 43-217)
T1 construct: extracellular domain; also called FcgRIIb; 2b; not shown: His tag at the C terminus
T1 sequence (looked up): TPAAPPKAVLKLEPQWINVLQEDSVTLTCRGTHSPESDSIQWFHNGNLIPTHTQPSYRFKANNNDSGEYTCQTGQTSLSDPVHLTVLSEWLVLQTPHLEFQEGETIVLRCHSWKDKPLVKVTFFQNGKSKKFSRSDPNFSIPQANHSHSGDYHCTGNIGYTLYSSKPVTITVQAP
Assay: SPR, relative binding, HeCon Ab = 100
Experimental: Analysis of interaction between objective antibody and the FcγR was carried out using Biacore T100 (GE Healthcare). HBS-EP+ (GE Healthcare) was used as the running buffer, and the measurement temperature was set to 25° C. Chips produced by immobilizing the antigen peptide by the amine coupling method to a Series S Sencor Chip CM5 (GE Healthcare), or alternatively, chips produced by allowing preliminarily biotinylated antigen peptides to interact with and immobilize onto a Series S Sensor Chip SA (certified) (GE Healthcare) were used. Antibodies of interest were captured onto an antigen peptide-immobilized chip, and allowed to interact to each FcγR diluted with running buffer. To regenerate and repeatedly use the chip, the antibodies captured on the chip were washed off by reacting 10 mM glycine-HCl, pH 1.5.

B1: GpH7-A5/GpH7-B3 variant K326_15Y/GpL16-k0 (antibody, human IgG1, kappa)
heavy 1: not shown
heavy 2: not shown
light: DIVMTQSPLSLPVTPGEPASISCQASESLVHSNRNTYLHWYLQKPGQSPQLLIYKVSNRFSGVPDRFSGSGSGTDFTLKISRVEAEDVGVYYCSQNTHVPPTFGQGTKVEIERTVAAPSVFIFPPSDEQLKSGTASVVCLLNNFYPREAKVQWKVDNALQSGNSQESVTEQDSKDSTYSLSSTLTLSKADYEKHKVYACEVTHQGLSSPVTKSFNRGEC
notes: also called He Ab K326_15Y
With B1 the He/Con_2b was 159 % of control.

B2: GpH7-A5/GpH7-B3 variant K326_19Q/GpL16-k0 (antibody, human IgG1, kappa)
heavy 1: not shown
heavy 2: not shown
light: DIVMTQSPLSLPVTPGEPASISCQASESLVHSNRNTYLHWYLQKPGQSPQLLIYKVSNRFSGVPDRFSGSGSGTDFTLKISRVEAEDVGVYYCSQNTHVPPTFGQGTKVEIERTVAAPSVFIFPPSDEQLKSGTASVVCLLNNFYPREAKVQWKVDNALQSGNSQESVTEQDSKDSTYSLSSTLTLSKADYEKHKVYACEVTHQGLSSPVTKSFNRGEC
notes: also called He Ab K326_19Q
B2 was tested, and the He/Con_2b was 139 % of control.

B3: GpH7-A5/GpH7-B3 variant K334_13S/GpL16-k0 (antibody, human IgG1, kappa)
heavy 1: not shown
heavy 2: not shown
light: DIVMTQSPLSLPVTPGEPASISCQASESLVHSNRNTYLHWYLQKPGQSPQLLIYKVSNRFSGVPDRFSGSGSGTDFTLKISRVEAEDVGVYYCSQNTHVPPTFGQGTKVEIERTVAAPSVFIFPPSDEQLKSGTASVVCLLNNFYPREAKVQWKVDNALQSGNSQESVTEQDSKDSTYSLSSTLTLSKADYEKHKVYACEVTHQGLSSPVTKSFNRGEC
notes: also called He Ab K334_13S
In the case of B3, the He/Con_2b is reported as 111 % of control.

B4: GpH7-A5/GpH7-B3 variant K334_05P/GpL16-k0 (antibody, human IgG1, kappa)
heavy 1: not shown
heavy 2: not shown
light: DIVMTQSPLSLPVTPGEPASISCQASESLVHSNRNTYLHWYLQKPGQSPQLLIYKVSNRFSGVPDRFSGSGSGTDFTLKISRVEAEDVGVYYCSQNTHVPPTFGQGTKVEIERTVAAPSVFIFPPSDEQLKSGTASVVCLLNNFYPREAKVQWKVDNALQSGNSQESVTEQDSKDSTYSLSSTLTLSKADYEKHKVYACEVTHQGLSSPVTKSFNRGEC
notes: also called He Ab K334_05P
B4 was tested, and the He/Con_2b was 105 % of control.

B5: GpH7-A5/GpH7-B3 variant K334_08L/GpL16-k0 (antibody, human IgG1, kappa)
heavy 1: not shown
heavy 2: not shown
light: DIVMTQSPLSLPVTPGEPASISCQASESLVHSNRNTYLHWYLQKPGQSPQLLIYKVSNRFSGVPDRFSGSGSGTDFTLKISRVEAEDVGVYYCSQNTHVPPTFGQGTKVEIERTVAAPSVFIFPPSDEQLKSGTASVVCLLNNFYPREAKVQWKVDNALQSGNSQESVTEQDSKDSTYSLSSTLTLSKADYEKHKVYACEVTHQGLSSPVTKSFNRGEC
notes: also called He Ab K334_08L
In the case of B5, the He/Con_2b is reported as 106 % of control.

B6: GpH7-A5/GpH7-B3 variant L328_02A/GpL16-k0 (antibody, human IgG1, kappa)
heavy 1: not shown
heavy 2: not shown
light: DIVMTQSPLSLPVTPGEPASISCQASESLVHSNRNTYLHWYLQKPGQSPQLLIYKVSNRFSGVPDRFSGSGSGTDFTLKISRVEAEDVGVYYCSQNTHVPPTFGQGTKVEIERTVAAPSVFIFPPSDEQLKSGTASVVCLLNNFYPREAKVQWKVDNALQSGNSQESVTEQDSKDSTYSLSSTLTLSKADYEKHKVYACEVTHQGLSSPVTKSFNRGEC
notes: also called He Ab L328_02A
In the case of B6, the He/Con_2b is reported as 144 % of control.

B7: GpH7-A5/GpH7-B3 variant K334_04F/GpL16-k0 (antibody, human IgG1, kappa)
heavy 1: not shown
heavy 2: not shown
light: DIVMTQSPLSLPVTPGEPASISCQASESLVHSNRNTYLHWYLQKPGQSPQLLIYKVSNRFSGVPDRFSGSGSGTDFTLKISRVEAEDVGVYYCSQNTHVPPTFGQGTKVEIERTVAAPSVFIFPPSDEQLKSGTASVVCLLNNFYPREAKVQWKVDNALQSGNSQESVTEQDSKDSTYSLSSTLTLSKADYEKHKVYACEVTHQGLSSPVTKSFNRGEC
notes: also called He Ab K334_04F
With B7 the He/Con_2b was 111 % of control.

B8: GpH7-A5/GpH7-B3 variant K334_14T/GpL16-k0 (antibody, human IgG1, kappa)
heavy 1: not shown
heavy 2: not shown
light: DIVMTQSPLSLPVTPGEPASISCQASESLVHSNRNTYLHWYLQKPGQSPQLLIYKVSNRFSGVPDRFSGSGSGTDFTLKISRVEAEDVGVYYCSQNTHVPPTFGQGTKVEIERTVAAPSVFIFPPSDEQLKSGTASVVCLLNNFYPREAKVQWKVDNALQSGNSQESVTEQDSKDSTYSLSSTLTLSKADYEKHKVYACEVTHQGLSSPVTKSFNRGEC
notes: also called He Ab K334_14T
For B8, the He/Con_2b was 115 % of control.

B9: GpH7-A5/GpH7-B3 variant L328_13S/GpL16-k0 (antibody, human IgG1, kappa)
heavy 1: not shown
heavy 2: not shown
light: DIVMTQSPLSLPVTPGEPASISCQASESLVHSNRNTYLHWYLQKPGQSPQLLIYKVSNRFSGVPDRFSGSGSGTDFTLKISRVEAEDVGVYYCSQNTHVPPTFGQGTKVEIERTVAAPSVFIFPPSDEQLKSGTASVVCLLNNFYPREAKVQWKVDNALQSGNSQESVTEQDSKDSTYSLSSTLTLSKADYEKHKVYACEVTHQGLSSPVTKSFNRGEC
notes: also called He Ab L328_13S
B9 was tested, and the He/Con_2b was 149 % of control.

B10: GpH7-A5/GpH7-B3 variant K334_02A/GpL16-k0 (antibody, human IgG1, kappa)
heavy 1: not shown
heavy 2: not shown
light: DIVMTQSPLSLPVTPGEPASISCQASESLVHSNRNTYLHWYLQKPGQSPQLLIYKVSNRFSGVPDRFSGSGSGTDFTLKISRVEAEDVGVYYCSQNTHVPPTFGQGTKVEIERTVAAPSVFIFPPSDEQLKSGTASVVCLLNNFYPREAKVQWKVDNALQSGNSQESVTEQDSKDSTYSLSSTLTLSKADYEKHKVYACEVTHQGLSSPVTKSFNRGEC
notes: also called He Ab K334_02A
B10 was tested, and the He/Con_2b was 108 % of control.

B11: GpH7-A5/GpH7-B3 variant K334_03V/GpL16-k0 (antibody, human IgG1, kappa)
heavy 1: not shown
heavy 2: not shown
light: DIVMTQSPLSLPVTPGEPASISCQASESLVHSNRNTYLHWYLQKPGQSPQLLIYKVSNRFSGVPDRFSGSGSGTDFTLKISRVEAEDVGVYYCSQNTHVPPTFGQGTKVEIERTVAAPSVFIFPPSDEQLKSGTASVVCLLNNFYPREAKVQWKVDNALQSGNSQESVTEQDSKDSTYSLSSTLTLSKADYEKHKVYACEVTHQGLSSPVTKSFNRGEC
notes: also called He Ab K334_03V
For B11, the He/Con_2b was 125 % of control.

B12: GpH7-A5/GpH7-B3 variant K326_16H/GpL16-k0 (antibody, human IgG1, kappa)
heavy 1: not shown
heavy 2: not shown
light: DIVMTQSPLSLPVTPGEPASISCQASESLVHSNRNTYLHWYLQKPGQSPQLLIYKVSNRFSGVPDRFSGSGSGTDFTLKISRVEAEDVGVYYCSQNTHVPPTFGQGTKVEIERTVAAPSVFIFPPSDEQLKSGTASVVCLLNNFYPREAKVQWKVDNALQSGNSQESVTEQDSKDSTYSLSSTLTLSKADYEKHKVYACEVTHQGLSSPVTKSFNRGEC
notes: also called He Ab K326_16H
In the case of B12, the He/Con_2b is reported as 119 % of control.

B13: GpH7-A5/GpH7-B3 variant K334_07I/GpL16-k0 (antibody, human IgG1, kappa)
heavy 1: not shown
heavy 2: not shown
light: DIVMTQSPLSLPVTPGEPASISCQASESLVHSNRNTYLHWYLQKPGQSPQLLIYKVSNRFSGVPDRFSGSGSGTDFTLKISRVEAEDVGVYYCSQNTHVPPTFGQGTKVEIERTVAAPSVFIFPPSDEQLKSGTASVVCLLNNFYPREAKVQWKVDNALQSGNSQESVTEQDSKDSTYSLSSTLTLSKADYEKHKVYACEVTHQGLSSPVTKSFNRGEC
notes: also called He Ab K334_07I
With B13 the He/Con_2b was 119 % of control.

B14: GpH7-A5/GpH7-B3 variant K334_10E/GpL16-k0 (antibody, human IgG1, kappa)
heavy 1: not shown
heavy 2: not shown
light: DIVMTQSPLSLPVTPGEPASISCQASESLVHSNRNTYLHWYLQKPGQSPQLLIYKVSNRFSGVPDRFSGSGSGTDFTLKISRVEAEDVGVYYCSQNTHVPPTFGQGTKVEIERTVAAPSVFIFPPSDEQLKSGTASVVCLLNNFYPREAKVQWKVDNALQSGNSQESVTEQDSKDSTYSLSSTLTLSKADYEKHKVYACEVTHQGLSSPVTKSFNRGEC
notes: also called He Ab K334_10E
For B14, the He/Con_2b was 114 % of control.

B15: GpH7-A5/GpH7-B3 variant K326_20W/GpL16-k0 (antibody, human IgG1, kappa)
heavy 1: not shown
heavy 2: not shown
light: DIVMTQSPLSLPVTPGEPASISCQASESLVHSNRNTYLHWYLQKPGQSPQLLIYKVSNRFSGVPDRFSGSGSGTDFTLKISRVEAEDVGVYYCSQNTHVPPTFGQGTKVEIERTVAAPSVFIFPPSDEQLKSGTASVVCLLNNFYPREAKVQWKVDNALQSGNSQESVTEQDSKDSTYSLSSTLTLSKADYEKHKVYACEVTHQGLSSPVTKSFNRGEC
notes: also called He Ab K326_20W
For B15, the He/Con_2b was 148 % of control.

B16: GpH7-A5/GpH7-B3 variant L235_20W/GpL16-k0 (antibody, human IgG1, kappa)
heavy 1: not shown
heavy 2: not shown
light: DIVMTQSPLSLPVTPGEPASISCQASESLVHSNRNTYLHWYLQKPGQSPQLLIYKVSNRFSGVPDRFSGSGSGTDFTLKISRVEAEDVGVYYCSQNTHVPPTFGQGTKVEIERTVAAPSVFIFPPSDEQLKSGTASVVCLLNNFYPREAKVQWKVDNALQSGNSQESVTEQDSKDSTYSLSSTLTLSKADYEKHKVYACEVTHQGLSSPVTKSFNRGEC
notes: also called He Ab L235_20W
B16 was tested, and the He/Con_2b was 147 % of control.
